Patent US20230025707A1

Key:
[1] = biological target: Lewy body α-Synuclein (human) (UniProt P37840); assay: IHC, human amygdala; OD of Lewy bodies / OD of tissue
[2] = biological target: human α-Synuclein pre-formed fibrils (human) (UniProt P37840); assay: cell-based or functional assay

Substance	LB Discrimination Index [1]	% Inhibition (primary neuron assay) [2] [%]
Syn303 (antibody)	2.1	
Syn211 (antibody)		94.7
IgG (antibody)		0
